Measurements as given in IntAct's records for PubMed 31585087.

B1: GRB2-associated-binding protein 1 (Homo sapiens), Q13480 (parent)
chain: MSGGEVVCSGWLRKSPPEKKLKRYAWKRRWFVLRSGRLTGDPDVLEYYKNDHAKKPIRIIDLNLCQQVDAGLTFNKKEFENSYIFDINTIDRIFYLVADSEEEMNKWVRCICDICGFNPTEEDPVKPPGSSLQAPADLPLAINTAPPSTQADSSSATLPPPYQLINVPPHLETLGIQEDPQDYLLLINCQSKKPEPTRTHADSAKSTSSETDCNDNVPSHKNPASSQSKHGMNGFFQQQMIYDSPPSRAPSASVDSSLYNLPRSYSHDVLPKVSPSSTEADGELYVFNTPSGTSSVETQMRHVSISYDIPPTPGNTYQIPRTFPEGTLGQTSKLDTIPDIPPPRPPKPHPAHDRSPVETCSIPRTASDTDSSYCIPTAGMSPSRSNTISTVDLNKLRKDASSQDCYDIPRAFPSDRSSSLEGFHNHFKVKNVLTVGSVSSEELDENYVPMNPNSPPRQHSSSFTEPIQEANYVPMTPGTFDFSSFGMQVPPPAHMGFRSSPKTPPRRPVPVADCEPPPVDRNLKPDRKVKPAPLEIKPLPEWEELQAPVRSPITRSFARDSSRFPMSPRPDSVHSTTSSSDSHDSEENYVPMNPNLSSEDPNLFGSNSLDGGSSPMIKPKGDKQVEYLDLDLDSGKSTPPRKQKSSGSGSSVADERVDYVVVDQQKTLALKSTREAWTDGRQSTESETPAKSVK
partner: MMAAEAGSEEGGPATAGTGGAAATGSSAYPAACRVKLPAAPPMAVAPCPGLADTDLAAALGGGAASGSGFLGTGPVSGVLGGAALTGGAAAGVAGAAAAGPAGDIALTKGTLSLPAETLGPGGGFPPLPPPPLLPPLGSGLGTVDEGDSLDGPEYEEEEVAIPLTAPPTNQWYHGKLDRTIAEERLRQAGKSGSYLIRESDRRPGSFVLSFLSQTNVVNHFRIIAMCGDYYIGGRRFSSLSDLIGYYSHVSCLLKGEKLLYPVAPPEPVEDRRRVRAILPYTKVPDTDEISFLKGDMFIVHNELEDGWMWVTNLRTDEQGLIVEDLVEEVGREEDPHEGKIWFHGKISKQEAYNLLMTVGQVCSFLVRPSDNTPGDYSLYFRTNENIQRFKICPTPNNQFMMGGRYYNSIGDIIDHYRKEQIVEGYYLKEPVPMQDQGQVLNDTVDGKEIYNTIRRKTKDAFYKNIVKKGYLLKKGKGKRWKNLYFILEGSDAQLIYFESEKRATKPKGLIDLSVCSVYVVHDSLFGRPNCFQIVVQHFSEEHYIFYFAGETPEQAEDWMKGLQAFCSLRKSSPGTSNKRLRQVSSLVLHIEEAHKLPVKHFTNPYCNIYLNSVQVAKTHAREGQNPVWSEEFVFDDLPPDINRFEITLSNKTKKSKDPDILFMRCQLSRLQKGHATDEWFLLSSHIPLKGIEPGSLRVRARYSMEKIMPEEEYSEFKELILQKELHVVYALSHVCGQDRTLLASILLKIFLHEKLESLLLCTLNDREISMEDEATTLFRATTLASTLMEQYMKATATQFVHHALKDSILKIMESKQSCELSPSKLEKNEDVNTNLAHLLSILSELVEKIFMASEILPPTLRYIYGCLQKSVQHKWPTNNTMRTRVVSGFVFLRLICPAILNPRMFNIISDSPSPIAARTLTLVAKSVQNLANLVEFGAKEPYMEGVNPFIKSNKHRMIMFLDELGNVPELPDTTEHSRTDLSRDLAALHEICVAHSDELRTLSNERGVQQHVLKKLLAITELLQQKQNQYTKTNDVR

Variants of: B1
Conditions: with rasa1_rat Rasa1, P50904

effect of a mutation on the interaction | Variant
disrupting interaction strength | P320S
